Results from patent publication US7803749B2, “Peptide inhibitors of MKK7 kinase binding to insulin binding proteins” (Xigen SA, priority 2002, dated 2010).
Entries after “also recorded” stand apart in the source; their conditions may differ. Residues, ends and D or L forms follow the SMILES beside them.

Key:
[1] = tested on: developing rat cortical neurons; test: Incubation of developing rat cortical neurons with peptide (necrotic bodies, neuron number); conditions: 1 μM, vs control neurons, FIGS. 4A-4F
[2] = molecular target: T1, MKK7 binding to IB2 (SH3 domain) (Homo sapiens, UniProt Q13387); test: Pull-down of 35S-labelled MKK7 with GST-SH3 domain of IB2; conditions: FIG. 2
T1 construct: the SH3 domains of IB1 and IB2 were subcloned using PCR into the pGEX-4T1 vector in frame with the GST; made in house; host or cells: E. coli
T1 sequence (Q13387 604-665 limits assumed): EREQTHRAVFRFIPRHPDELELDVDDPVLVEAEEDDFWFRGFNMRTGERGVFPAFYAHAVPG
Description: (§1) Effects of the αSH3 peptide on JNK biological activities were then studied. […] In the pull-down experiments, the SH3 domains of IB1 and IB2 were subcloned using PCR into the pGEX-4T1 vector in frame with the GST (Pharmacia). The recombinant proteins were produced in E. Coli. Purification was performed in native conditions using a glutathione-agarose column (Pharmacia). ^35S-labelled MKK7 was then used in classical pull-down experiments.

[3] = molecular target: T2, MKK7 binding to IB1 (SH3 domain) (Homo sapiens, UniProt Q9UQF2); test: Pull-down of 35S-labelled MKK7 with GST-SH3 domain of IB1; conditions: FIG. 2
T2 construct: the SH3 domains of IB1 and IB2 were subcloned using PCR into the pGEX-4T1 vector in frame with the GST; made in house; host or cells: E. coli
T2 sequence (Q9UQF2 488-549 limits assumed): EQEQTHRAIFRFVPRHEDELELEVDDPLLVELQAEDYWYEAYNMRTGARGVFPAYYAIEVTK
Description: as §1

| Blocking of the binding of MKK7 to IB2 [2] | Blocking of the binding of MKK7 to IB1 [3] | Compound | Toxicity on developing neurons (appearance of residual necrotic bodies) [1] |
| --- | --- | --- | --- |
|  |  | CSCC[C@H](NC(=O)CNC(=O)[C@@H](NC(=O)[C@H](CO)NC(=O)[C@@H](NC(=O)[C@H](CO)NC(=O)[C@H](CCCNC(=N)N)NC(=O)[C@H](CCCNC(=N)N)NC(=O)[C@H](CCCNC(=N)N)NC(=O)[C@H](CCC(N)=O)NC(=O)[C@H](CCCNC(=N)N)NC(=O)[C@H](CCCNC(=N)N)NC(=O)[C@H](CCCCN)NC(=O)[C@H](CCCCN)NC(=O)[C@@H](N)CCCNC(=N)N)C(C)C)C(C)C)C(=O)N1CCC[C@H]1C(=O)N1CCC[C@H]1C(=O)N[C@@H](CO)C(=O)N1CCC[C@H]1C(=O)N[C@@H](CCCNC(=N)N)C(=O)N1CCC[C@H]1C(=O)O [TAT-αSH3] (H-RKKRRQRRRSVSVGMPPSPRP-OH) | lacked residual necrotic bodies; also recorded: not toxic |
| efficiently blocks | efficiently blocks | αSH3: consensus αSH3 sequence SVSVGMPPSPRP, 12 aa |  |
